The target in the assay is human plasma kallikrein (Homo sapiens, UniProt P03952). As to the kind of experiment: Affinity (Ki,app) for plasma proteases, Table 1. Format: biochemical.

No end group written: not given here.

Chain of human plasma kallikrein (P03952 391-638 limits assumed): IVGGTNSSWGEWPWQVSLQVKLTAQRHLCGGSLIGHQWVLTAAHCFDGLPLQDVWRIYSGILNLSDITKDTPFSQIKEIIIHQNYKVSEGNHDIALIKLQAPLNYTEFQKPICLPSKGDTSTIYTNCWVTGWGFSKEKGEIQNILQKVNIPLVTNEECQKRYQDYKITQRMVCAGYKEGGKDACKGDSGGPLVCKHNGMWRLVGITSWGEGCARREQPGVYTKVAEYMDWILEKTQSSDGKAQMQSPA
Chain of human plasma kallikrein (P03952 20-390 limits assumed): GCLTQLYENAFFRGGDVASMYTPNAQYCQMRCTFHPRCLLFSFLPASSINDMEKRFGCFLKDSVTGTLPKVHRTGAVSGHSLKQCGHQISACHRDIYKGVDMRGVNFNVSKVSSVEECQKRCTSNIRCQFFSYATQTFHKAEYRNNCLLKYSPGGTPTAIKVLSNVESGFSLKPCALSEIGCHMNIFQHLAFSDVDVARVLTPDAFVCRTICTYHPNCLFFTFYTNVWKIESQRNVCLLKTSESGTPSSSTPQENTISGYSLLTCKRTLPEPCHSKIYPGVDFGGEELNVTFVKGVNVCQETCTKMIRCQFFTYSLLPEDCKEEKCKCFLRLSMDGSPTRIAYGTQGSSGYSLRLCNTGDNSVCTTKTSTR

Take “PEP-1: non-naturally occurring KI polypeptide, 60-amino acid sequence of SEQ ID NO:2, recombinant from Pichia pastoris (EAMHSFCAFKADDGPCRAAHPRWFFNIFTRQCEEFIYGGCEGNQNRFESLEECKKMCTRD; ends and bridges not checked; cysteine pairing not given here)”: under “from Table 1”, the “specificity among kallikrein and eleven other plasma proteases” value is given as “highly specific for human plasma kallikrein”. Under “ratio versus aprotinin”, the “affinity (Ki,app) for kallikrein relative to the affinity of aprotinin” value is on record as 1000 times higher.
In the case of aprotinin, the “concentration in the plasma required to inhibit 99% of the kallikrein at 1 nM” value (kallikrein 1 nM, 99% inhibition) is recorded as “at least 3 mu.M”. The Ki (read-out: Ki,app, human plasma kallikrein) was 30 nM.

The values above are taken from patent US7276480B1, “Prevention and reduction of blood loss” (Dyax Corp., priority 2005, dated 2007).
